Results taken from patent US20140212440A1.
Read-outs that look alike come from different tables or passages of the source. Where no end group is shown, it is not given here. [ ]: non-standard residue; d: D form. The star is where a group is joined. Acetyl(2-(4-imidazolyl)) = O=C(Cc1c[nH]cn1)*

B1: oxyntomodulin derivative (SEQ ID NO. 8) (peptide)
peptide: [Acetyl(2-(4-imidazolyl))]SQGTFTSDLSRQLEEEAVRLFIEWLMNK
B2: oxyntomodulin derivative (SEQ ID NO. 3) (peptide)
peptide: [Acetyl(2-(4-imidazolyl))]SQGTFTSDYSKYLDERRAQDFVAWLKNTGPSSGAPPPS
B3: oxyntomodulin derivative (SEQ ID NO. 18) (peptide)
peptide: [Acetyl(2-(4-imidazolyl))]SQGTFTSDYSRYLDEEAVRLFIEWIRNGGPSSGAPPPSK

What was measured:
Assay in all cases: cell-based or functional assay
[1] = biological target: human glucagon receptor (human) (UniProt P47871)
[2] = biological target: human GLP-1 receptor (human) (UniProt P43220)
[3] = biological target: human glucagon receptor (human) (UniProt P47871); remark: listed apart in the source

human glucagon receptor (human), sequence (P47871 26-477): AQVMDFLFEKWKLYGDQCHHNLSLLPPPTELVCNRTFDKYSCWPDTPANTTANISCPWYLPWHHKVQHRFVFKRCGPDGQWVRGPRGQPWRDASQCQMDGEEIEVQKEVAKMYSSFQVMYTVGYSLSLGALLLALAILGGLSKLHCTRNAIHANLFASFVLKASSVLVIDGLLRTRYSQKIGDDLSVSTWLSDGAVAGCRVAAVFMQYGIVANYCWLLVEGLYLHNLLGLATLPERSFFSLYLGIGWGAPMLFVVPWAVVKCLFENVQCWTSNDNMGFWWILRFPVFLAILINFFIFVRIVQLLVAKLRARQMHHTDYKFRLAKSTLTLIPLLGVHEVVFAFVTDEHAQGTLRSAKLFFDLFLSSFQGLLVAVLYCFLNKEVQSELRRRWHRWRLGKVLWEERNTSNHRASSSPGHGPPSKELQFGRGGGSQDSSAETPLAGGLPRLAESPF
human GLP-1 receptor (human), sequence (P43220 24-463): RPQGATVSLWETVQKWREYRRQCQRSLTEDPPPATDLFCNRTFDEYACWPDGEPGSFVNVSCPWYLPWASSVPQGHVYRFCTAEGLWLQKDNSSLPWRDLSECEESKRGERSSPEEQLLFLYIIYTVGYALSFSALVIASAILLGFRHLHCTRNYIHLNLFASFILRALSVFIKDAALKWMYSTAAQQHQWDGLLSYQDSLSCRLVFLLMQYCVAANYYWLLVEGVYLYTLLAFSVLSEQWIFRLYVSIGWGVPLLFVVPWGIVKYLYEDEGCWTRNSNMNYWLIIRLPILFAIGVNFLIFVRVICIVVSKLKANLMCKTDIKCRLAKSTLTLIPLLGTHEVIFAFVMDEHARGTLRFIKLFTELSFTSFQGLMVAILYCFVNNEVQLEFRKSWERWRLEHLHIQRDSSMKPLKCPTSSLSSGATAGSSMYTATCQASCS

Row | Molecule | EC50 (nM), cAMP in CHO/GCGR [1] | EC50 (nM), cAMP in CHO/GLP-1R [2] | EC50 (nM), cAMP in CHO/GCGR [3]
1 | GLP-1 (from UniProt P01275 92-128) (ligand) | > 1000 nM | – | –
2 | B1 | – | 420 nM | > 1000 nM
3 | B2 | – | > 1000 nM | 638 nM
4 | B3 | – | 96.3 nM | > 1000 nM
